One data set concerns the target T1, caspase-1 (Homo sapiens, UniProt P29466).
T1 sequence (P29466 120-297 limits assumed): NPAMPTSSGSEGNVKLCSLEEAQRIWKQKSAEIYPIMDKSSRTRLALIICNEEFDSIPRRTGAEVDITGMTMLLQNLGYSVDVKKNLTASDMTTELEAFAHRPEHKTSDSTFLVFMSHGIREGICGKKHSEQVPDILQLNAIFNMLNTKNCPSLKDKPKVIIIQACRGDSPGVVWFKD
T1 sequence (P29466 317-404 limits assumed): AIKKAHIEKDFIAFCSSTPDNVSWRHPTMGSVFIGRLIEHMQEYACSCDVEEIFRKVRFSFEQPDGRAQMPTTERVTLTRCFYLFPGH
The following applies: cited from earlier work; for Ki: reported, Garcia-Calvo et al. 1998.

A further data set concerns the target caspase-8 (Homo sapiens, UniProt Q14790). The following applies: reported, Garcia-Calvo et al. 1998; cited from earlier work.
In the next data set the target is T2, Caspase-4 (Homo sapiens, UniProt P49662).
T2 sequence (P49662 81-270 limits assumed): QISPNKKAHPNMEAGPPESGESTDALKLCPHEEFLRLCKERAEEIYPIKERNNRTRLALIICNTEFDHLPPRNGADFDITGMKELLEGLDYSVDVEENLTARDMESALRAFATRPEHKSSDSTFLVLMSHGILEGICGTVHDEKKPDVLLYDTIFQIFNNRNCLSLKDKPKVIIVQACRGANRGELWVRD
T2 sequence (P49662 290-377 limits assumed): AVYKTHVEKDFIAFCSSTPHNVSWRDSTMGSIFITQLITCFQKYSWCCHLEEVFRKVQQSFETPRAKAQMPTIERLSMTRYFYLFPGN
The following applies: Garcia-Calvo et al. 1998; cited from earlier work.

Another data set concerns the target T3, Caspase-5 (Homo sapiens, UniProt P51878).
T3 sequence (P51878 137-327 limits assumed): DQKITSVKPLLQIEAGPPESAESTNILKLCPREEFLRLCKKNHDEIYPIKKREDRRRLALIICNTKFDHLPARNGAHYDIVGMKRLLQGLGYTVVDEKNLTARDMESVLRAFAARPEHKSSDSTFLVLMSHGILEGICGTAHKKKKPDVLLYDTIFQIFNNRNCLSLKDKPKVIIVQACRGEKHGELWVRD
T3 sequence (P51878 347-434 limits assumed): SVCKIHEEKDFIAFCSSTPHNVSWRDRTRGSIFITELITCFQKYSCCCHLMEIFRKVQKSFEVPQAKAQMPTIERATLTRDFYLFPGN
The conditions noted are these: Garcia-Calvo et al. 1998; cited from earlier work.

The test system of data set [1] is all other group II and group III caspases except caspase-8. The following applies: group II and group III caspases other than caspase-8; cited from earlier work.
Another data set has as its target T4, caspase-7 (Homo sapiens, UniProt P55210).
T4 sequence (P55210 24-198 limits assumed): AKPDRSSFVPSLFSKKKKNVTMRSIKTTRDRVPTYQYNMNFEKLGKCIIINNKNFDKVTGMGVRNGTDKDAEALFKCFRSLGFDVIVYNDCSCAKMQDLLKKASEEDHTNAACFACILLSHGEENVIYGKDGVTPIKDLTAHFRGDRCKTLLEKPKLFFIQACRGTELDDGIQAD
T4 sequence (P55210 207-303 limits assumed): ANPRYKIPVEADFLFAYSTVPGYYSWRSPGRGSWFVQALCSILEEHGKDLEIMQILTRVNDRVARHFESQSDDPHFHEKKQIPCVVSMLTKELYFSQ
The following applies: reported, Garcia-Calvo et al. 1998; cited from earlier work.

The subject of a further data set is group III caspases. The conditions noted are these: cited from earlier work.
The target in data set [2] is T5, Ac-DEVD-aminoemethylcoumarin.
T5 chain: DEVD

We go through five molecules from patent US20080187980A1, “Method for identifying potential agonists or antagonists using the three-dimensional structure of caspase-7” (Vertex Pharmaceuticals Incorporated, priority 1999, published 2008).

A word on the Ki: it is a measure of affinity in units of concentration, obtained from inhibition or displacement.

Sequence of caspase-8 (Q14790 217-374 limits assumed, one chain of several): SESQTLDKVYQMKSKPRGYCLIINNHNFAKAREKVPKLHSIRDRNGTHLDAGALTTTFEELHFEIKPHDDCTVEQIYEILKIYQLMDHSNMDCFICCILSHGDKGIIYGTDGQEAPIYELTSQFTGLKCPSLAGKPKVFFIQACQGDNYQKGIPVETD

In the case of “AcWEHD-CHO (Ac-WEHD-aldehyde; SMILES CC(=O)N[C@@H](Cc1c[nH]c2ccccc12)C(=O)N[C@@H](CCC(=O)O)C(=O)N[C@@H](Cc1c[nH]cn1)C(=O)N[C@H](C=O)CC(=O)O)”, the Ki in the data set with caspase-1 was 0.056 nM; with caspase-8 it was 21 nM; with Caspase-4, 97 nM; in the data set with Caspase-5, 43 nM. Further, the “inhibition of all other group II and group III caspases except caspase-8 (in words)” value in data set [1] is “poor inhibitor”.

Consider “acetyl-Asp-Glu-Val-Asp-CHO [Ac-DEVD-CHO]”, for which the Ki in the data set with caspase-1 was 18 nM; with caspase-7 it was 1.6 nM; with caspase-8 it was 0.92 nM.

On to “Ac-YVAD-CHO: tetrapeptide aldehyde inhibitor, SEQ ID NO: 4”, for which the “inhibitory potency against caspase-1 (in words)” value with caspase-1 is recorded as “good inhibitory potency”. For the same molecule, in the data set on group III caspases, the “inhibitory potency against group III caspases (in words)” value is given as “modest inhibitory potency”.

B1: Triple mutant caspase-8 (residues 233-479; Lys to Arg at residues 246, 250 and 253; Pro370 and Val371 removed) (protein)
chain: RGYCLIINNHNFARARERVPRLHSIRDRNGTHLDAGALTTTFEELHFEIKPHDDCTVEQIYEILKIYQLMDHSNMDCFICCILSHGDKGIIYGTDGQEAPIYELTSQFTGLKCPSLAGKPKVFFIQACQGDNYQKGIPVETDSEEQPYLEMDLSSPQTRYIPDEADFLLGMATVNNCVSYRNPAEGTWYIQSLCQSLRERCPRGDDILTILTEVNYEVSNKDDKKNMGKQMPQPTFTLRKKLVFPSD
In the case of B1, the kcat/Km result in data set [2] was “both enzymes appear to be indistinguishable, yielding a kcat/Km of 1×10^5 Ml-s^1-^1”.

B2: Wild-type caspase-8 (protein)
chain 1: RGYCLIINNHNFAKAREKVPKLHSIRDRNGTHLDAGALTTTFEELHFEIKPHDDCTVEQIYEILKIYQLMDHSNMDCFICCILSHGDKGIIYGTDGQEAPIYELTSQFTGLKCPSLAGKPKVFFIQACQGDNYQKGIPVETD
chain 2: LSSPQTRYIPDEADFLLGMATVNNCVSYRNPAEGTWYIQSLCQSLRERCPRGDDILTILTEVNYEVSNKDDKKNMGKQMPQPTFTLRKKLVFPSD
For B2, the kcat/Km entry in data set [2] is recorded as “both enzymes appear to be indistinguishable, yielding a kcat/Km of 1×10^5 Ml-s^1-^1”.
